These are literature values, as cited in article PMC4457300.

In this series the target is MLL MBM1 4-15 (Homo sapiens) (UniProt Q03164).

For orientation: Kd means the constant that tells how readily two partners part at equilibrium. For menin (from UniProt O00255), the dissociation constant Kd was 56 nM.
